Data reported in patent US7063946B2, “Methods, reagents, kits and apparatus for protein function analysis” (Meso Scale Technologies, LLC., priority 2001, dated 2006).
One block for each molecule: values may come before it.

Key:
[1] = tested on: pEY; test: In vitro kinase library screen: activity towards pEY; type: biochemical; details: 5 ul of expressed protein
How it was run: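 Kinases made by in vitro transcription/translation, immobilised on streptavidin/avidin plates and washed with Tris/Triton and high-salt buffers. Incubated overnight at room temperature with 5 nM pEY, 100 µM ATP, Mg2+/Mn2+ and vanadate at pH 7.4. Phospho-pEY captured with biotinylated PY20 and detected by Sulfo-TAG anti-phosphotyrosine ECL.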

[2] = target: T1, pY1068 peptide (SEQ ID NO: 7) (Homo sapiens, UniProt P00533); test: 96-well screen for phosphopeptide binding proteins, 7-spot IPR plates; details: two steps of normalization; top 9 clones
T1 construct: phosphotyrosine at Tyr1068 (chemical modification); purchased New England Peptide, Fitchburg Mass; host or cells: chemical synthesis
Procedure: A screen was conducted using 7-spot IPR plates. The 7 spot NPT IPR plates are described in more detail in copending Provisional Application No. 60/301,932 (entitled “Assay Plates, Reader Systems and Methods for Luminescence Test Measurements”, filed on Jun. 29, 2001, hereby incorporated by reference) and particularly in the description of Plate Type D in Example 6.1 (NPT IPR plate) and U.S. application Ser. Nos. 10/185,274 and 10/185,363, filed Jun. 28, 2002, each hereby incorporated by reference. These plates consist of a 96 wells with 7 zones (spots) for the immobilization of proteins or other reagents. Each spot was coated with BSA conjugated to either a single phosphopeptide or multiple phosphopeptides.
The plates were prepared essentially as described in example 12. The seven spots supported, respectively, the following BSA conjugates IkB, pY992, pY1068, pY1148, Myc, “A”, and “6-P”. “A” refers to a conjugate of BSA with multiple peptides: IkB, pY1148, Myc which were then coupled to BSA. “6-P” refers to a conjugate of BSA with the following multiple peptides: IkB, pY1148, pY992, pY1068, Smad3C.
For the assay, 4 ul from TnT reaction product described above were added to the coated plate containing 50 μl of binding buffer supplemented with 50 ng/well Ru-Streptavidin. The binding reaction was allowed to proceed at room temperature for 1 hour with constant shaking. […] The ECL signals were measured using an imaging plate reader (IPR). The raw data from the IPR reader was then normalized using two steps of normalization. The first round was based on the 50 lowest values for a given specific spot.

[3] = tested on: autophosphorylation (phosphotyrosine); test: In vitro kinase library screen: autophosphorylation; type: biochemical
How it was run: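 Biotinylated SYK and EphA7 from in vitro transcription/translation, immobilized on streptavidin/avidin plates; autophosphorylation overnight at room temperature with 5 mM MgCl2, 5 mM MnCl2, 100 μM ATP, pH 7.4. Phosphotyrosine detected by Sulfo-TAG anti-phosphotyrosine (45 min) and ECL read-out.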

[4] = tested on: phospho-pEY; test: Protein tyrosine phosphatase activity assay with phospho-pEY substrate; type: biochemical; details: 5 nM phospho-pEY, 45 min
Procedure: Several proteins were produced in an in vitro transcription and translation reaction using 1–150 ng of plasmid DNA including: Mock Luciferase (Promega); protein tyrosine phosphatase; non-receptor type 2 (PTP-N2, IMAGE ID# 3872164, Incyte Genomics, CA); and fer (fms/fps related) protein kinase, testis specific 2 clone (Fert2, IMAGE ID# 4485050, Incyte Genomics, CA). The proteins were produced and immobilized on SA coated NPT-IPR plates, as described in Example 7. […]
A tyrosine phosphate substrate was prepared by enzymatically phosphorylating poly(Glu, Tyr). […] The phosphorylation in the product was determined by transferring serially diluted reaction mixture to a streptavidin-coated NPT IPR plate and assaying for phosphorylated-poly(Glu, Tyr) as described in previous examples (see, e.g., Example 7).
The phosphorylated poly(Glu, Tyr) was used as a substrate to measure the phosphatase activity of the purified and immobilized PTP-N2. […] Following this incubation 45 μl of this mixture was transferred to a streptavidin-coated NPT IPR plate and the solution analyzed for phospho-poly(Glu, Tyr) content as described above.

HTS signal [1]: 523,662
normalized ECL signal, pY1068 spot [2]: 3
ECL signal [3]: 443,933
B1: 3919253: IMAGE clone protein: BMX non-receptor tyrosine kinase (protein)
chain: MDTKSILEELLLKRSQQKKKMSPNNYKERLFVLTKTNLSYYEYDKMKRGSRKGSIEIKKIRCVEKVNLEEQTPVERQYPFQIVYKDGLLYVYASNEESRSQWLKALQKEIRGNPHLLVKYHSGFFVDGKFLCCQQSCKAAPGCTLWEAYANLHTAVNEEKHRVPTFPDRVLKIPRAVPVLKMDAPSSSTTLAQYDNESKKNYGSQPPSSSTSLAQYDSNSKKIYGSQPNFNMQYIPREDFPDWWQVRKLKSSSSSEDVASSNQKERNVNHTTSKISWEFPESSSSEEEENLDDYDWFAGNISRSQSEQLLRQKGKEGAFMVRNSSQVGMYTVSLFSKAVNDKKGTVKHYHVHTNAENKLYLAENYCFDSIPKLIHYHQHNSAGMITRLRHPVSTKANKVPDSVSLGNGIWELKREEITLLKELGSGQFGVVQLGKWKGQYDVAVKMIKEGSMSEDEFFQEAQTMMKLSHPKLVKFYGVCSKEYPIYIVTEYISNGCLLNYLRSHGKGLEPSQLLEMCYDVCEGMAFLESHQFIHRDLAARNCLVDRDLCVKVSDFGMTRYVLDDQYVSSVGTKFPVKWSAPEVFHYFKYSSKSDVWAFGILMWEVFSLGKQPYDLYDNSQVVLKVSQGHRLYRPHLASDTIYQIMYSCWHELPEKRPTFQQLLSSIEPLREKDKH

ECL signal [4]: 70,574
B2: PTP-N2: protein tyrosine phosphatase, non-receptor type 2, IMAGE ID# 3872164 (protein, UniProt P17706 1-415, looked up)
Tyrosine-protein phosphatase …: MPTTIEREFEELDTQRRWQPLYLEIRNESHDYPHRVAKFPENRNRNRYRDVSPYDHSRVKLQNAENDYINASLVDIEEAQRSYILTQGPLPNTCCHFWLMVWQQKTKAVVMLNRIVEKESVKCAQYWPTDDQEMLFKETGFSVKLLSEDVKSYYTVHLLQLENINSGETRTISHFHYTTWPDFGVPESPASFLNFLFKVRESGSLNPDHGPAVIHCSAGIGRSGTFSLVDTCLVLMEKGDDINIKQVLLNMRKYRMGLIQTPDQLRFSYMAIIEGAKCIKGDSSIQKRWKELSKEDLSPAFDHSPNKIMTEKYNGNRIGLEEEKLTGDRCTGLSSKMQDTMEENSESALRKRIREDRKATTAQKVQQMKQRLNENERKRKRWLYWQPILTKMGFMSVILVGAFVGWTLFFQQNAL
